Results reported in paper PMC12052392 (PLOS Pathogens, 2025).

Columns and labels:
[1] = target: SARS-CoV-2 S2 (T1076-Q1208) antigen, trimeric S2 fusion-core-based antigen (SARS-CoV-2 prototype (MN908947.3), UniProt P0DTC2, biotin (Biotinylation Kit))
[2] = target: SARS-CoV-2 spike (S) protein, full-length, expressed on the surface of HEK-293T cells (SARS-CoV-2 prototype (MN908947.3), UniProt P0DTC2); assay: flow cytometry on cells; settings: one partner purified
[3] = target: S2 (T1076-Q1208) protein as coated in ELISA (devoid of the His tag) (SARS-CoV-2, MN908947.3, UniProt P0DTC2); assay: ELISA; […], room temperature; […]; settings: both partners purified

B1: H184 (VHH)
VHH: QLQLVESGGGLVQPGGSLTLSCTASVDYYALGWFRQTPEKQREGVSCIGISGQRTFYADSVKGRFNITRDNTRKTAFLQMKDLKPEDTGVYFCAAERGRTVDAMCLKARPDYWGQGTQVTVSS
- binding result [1]: binds

B2: nanobody H177 (VHH)
VHH: QVQLVESGGGRVPPGGSLRLSCVASGFYWDYFVISWFRQAPGKEREWVSCIRSATDSANYADFVKGRFTISRENGKSTVYLQMNSLTPEDTAVYRCAVAYGTSWCRNPADMNYWGKGTLVTVSS
notes: not shown: His6, C-terminal, kept
- binding result [2]: binds
- binding result [3]: binds

B3: nanobody H68 (VHH)
VHH: EVQVVESGGGLVQPGGSLRLSCVGSSFTLNAIGWFRQAPGKEREWVSCTTGDGSTNYPDSVKGRFTISRDNAKNTVYLQMNSLKPEDTAVYYCTAVRRCFLTTWTPINPYYGMHSWGKGTLVTVSS
notes: as for B2
- binding result [2]: binds
- binding result [3]: binds

B4: H147 (VHH)
VHH: QVQLVESGGAWVQPGGSLRLSCVASGFTLDYYAVGWFRQAPGKEREGVSCISRRGGESTNYASSVKGRFTISRDSVKNTVYLQMNSLKPEDTAVYYCAAVLRCFSTTWAPINPYYGMHSWGKGTLVTVSS
- binding result [1]: binds

B5: nanobody H8 (VHH)
VHH: QVQLVESGGGLVQTGGSLRLSCAVSRFTLDYGATGWFRQAPGKEREGVSCIGRDDGSTYYAESVKGRFTMSRDKAKNTVYLEMNSLKPEDTAVYYCAADYFARCAANLPNRYLYWGQGTQVTVSS
notes: as for B2
- binding result [3]: binds

B6: nanobody H88 (VHH)
VHH: QVQLVESGGGLLQPGGSLRLSCAASGFTLDNYAIGWFRQAPGKEREWVSCISVSDGRTYYADSVQGRFTTSRDNAKNTVYLHLNSLKPEDTAVYSCASRRGRWCTTRSYEYEYWGQGTQVTVSS
notes: as for B2
- binding result [3]: binds

B7: H36 (VHH)
VHH: QVQLVESGGALVQPGGSLTLSCSGHGITLRHYTVGWFREAPGKRRQWISSIRSSDERTNYAASVKGRFIISRNDGENTVKLQLNDVGPEDMATYRCAAGADTIKVFSGWAADYMFWGQGTQVTVSS
- binding result [1]: binds

B8: H15 (VHH)
VHH: QLQLVESGGALAQPGGSLTLSCAVRGATLDSYAIAWFREAPGEEREGVACIGGSEESTFMKYSLKDRVSLSTNRAEKMVYLHMNSLQPEDTAAYYCAASASGSRSVLAGCPSRTMGFWGKGTLVTVSS
- binding result [1]: binds

B9: H27 (VHH)
VHH: EVQVVESGGGLVQAGDSLTLSCVAVQGERFFSQYTVGWFRQAPGRERTLVATINYSRETYYSDSAKGRFTISRDNAKNTVYLQMNSLNPEDTATYYCAATRHARISTTITEDRYDYWGQGTQVTVSS
- binding result [1]: binds

B10: H102 (VHH)
VHH: QVQLVESGGGLVQPGGSLRLSCTGSGLSLEDYAIGWFRQAPGKDRNWVACIPHKREPLYRDYVRGRFTISRNNTANTVDLQMNSLKPEDTAVYYCTAVRRCFLTTWTPINPYYGMHSWGKGTLVTVSS
- binding result [1]: binds

B11: nanobody H85 (VHH)
VHH: QLQLVESGGGLVQAGGSLRLSCAASGSTISRHAMGWYRQAPGMQRELVASISSGGTTNYADSVKGRFTISRDSAKNMVYLHMTSLKPEDTAVYYCATKPVHMLTRRLHLGGCTYGMDYWGKGTLVTVSS
notes: as for B2
- binding result [3]: binds

B12: nanobody H93 (VHH)
VHH: QLQLVESGGGLVQPGGSLRLSCVVSGGTLDYHAIAWFRQAPGKVREGVLCISSSGGSTNWLEAVKGRFTISRDNAKNTVYLQMNSLKPEDTAVYYCAAVRRCFLTTWTPINPYYGMHSWGKGTLVTVSS
notes: as for B2
- binding result [2]: binds
- binding result [3]: binds

B13: nanobody H58 (VHH)
VHH: QLQLVESGGGLADDGGSLRLSCAASGFALRYWTVGWFRQAPGKEREGLACISRSGNITSYTDSAKGRFTISRDNAKNTVYLQMNSLKPEDTAVYYCTAVRRCFLTTWTPINPYYGMHSWGKGTLVTVSS
notes: as for B2
- binding result [2]: binds
- binding result [3]: binds

B14: H43 (VHH)
VHH: EVQVVESGGDLVQAGASLRLSCAAPEPVFISSFGNKYAFGWFRQAPGKQRELVASISGIGNTNYADSVNGRFTISRDNAKNSVYLQMNSLKPEDTAVYYCTAVRRCFLTTWTPINPYYGMHSWGKGTLVTVSS
- binding result [1]: binds

B15: nanobody H23 (VHH)
VHH: EVQVVESGGGWVQAGGSRRLSCAASGFTLDSYAVGWFRQAPGKEREGVSCISGISSSGGTTNYVDSVKGRFTISRDNAKNTVYLQMNSLKPEDTAVYYCAAVRRCFLTTWTPINPYYGMHSWGKGTLVTVSS
notes: as for B2
- binding result [3]: binds

B16: nanobody H84 (VHH)
VHH: QLQLVESGGGWVQAGGSLRLSCAASGFTLDSYAVGWFRQAPGKEREGVSCISGISSSGGTTNYVDSVKGRFTISRDNAKNTAELQMNSLKPEDTAVYYCTAVRRCFLTTWTPINPYYGMHSWGKGTLVTVSS
notes: as for B2
- binding result [3]: binds

B17: H45 (VHH)
VHH: QLQLVESGGGSVQSGGSLRLSCLATGRKLDDLVIKWFRQPPGKLREGVACISGSGRTIKYADSVKGRFIISNEYGKNTVYLQMNSLTPDDTAVYYCAAEQILCDRKWYPLGNDYYGQGTQVTVSS
- binding result [1]: binds

B18: nanobody H180 (VHH)
VHH: QVQLVESGGGLVQAGGSLKLSCAASGLRSDGTAIGWFRQAPGKEREWVSCIRRRDGGTYYADSVESRFTISRDVAKNTVHLQMNSLKPEDTAVYYCASRDDSWCTTRSYEYSYWGQGTPVTVSS
notes: as for B2
- binding result [2]: binds
- binding result [3]: binds

B19: nanobody H49 (VHH)
VHH: QLQLVESGGGSVQAGGSLRLACTTSGRTFNKYAMAWFRQPPGQEREFIASITWIGGSTYYANSAKGRFTISRDNAKNTAYLQMNSLKPDDTAVYQCQLRKGILSYWGQGTQVTVSS
notes: as for B2
- binding result [2]: binds
- binding result [3]: binds

B20: H6 (VHH)
VHH: QVQLVESGGGLVEAGGSLRLSCTTSGGTLSPYTMGWFRQAPGKGREFVSGISCLGWHSYEGDSVKGRFTISRDNAKNTLYLQMNSLKPEDTAVYYCAASSGCSSTMIDADFTSWGQGTQVTVSS
- binding result [1]: binds
